This is an account of results in paper PMC2648964, “Molecular Basis for the Sorting of the SNARE VAMP7 into Endocytic Clathrin-Coated Vesicles by the ArfGAP Hrb” (Cell, 2008).

Assay in all cases: ITC; VAMP7 longin domain (1.4 ml, 0.15-0.2 mM) in the cell, Hrb at 1.5-2 mM titrated in 30-40 injections of 4-8 μl; all GST tags removed
What all share (settings): both partners purified

One assay deals with T1, Hrb(1-176) His6 (human, UniProt P52594-1 1-176).
T1 construct: human Hrb, residues 1-176; also called residues 1–176 of Hrb; source: E. coli BL21(DE3)/pLysS, purified (Ni-NTA-agarose); not shown: His6, C-terminal, kept
T1 sequence (looked up): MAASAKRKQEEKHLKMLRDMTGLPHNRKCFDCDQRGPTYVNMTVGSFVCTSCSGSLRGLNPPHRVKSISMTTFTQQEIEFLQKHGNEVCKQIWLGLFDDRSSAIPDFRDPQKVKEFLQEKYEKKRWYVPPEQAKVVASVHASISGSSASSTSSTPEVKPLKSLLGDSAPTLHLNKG

In assay [1] the target is T2, Hrb(1-176) His6 L160S/L163S (human, UniProt P52594-1 1-176, L160S | L163S).
T2 construct: human Hrb, residues 1-176, with L160S and L163S; source: E. coli BL21(DE3)/pLysS, purified (Ni-NTA-agarose); not shown: His6, C-terminal, kept
T2 sequence (looked up): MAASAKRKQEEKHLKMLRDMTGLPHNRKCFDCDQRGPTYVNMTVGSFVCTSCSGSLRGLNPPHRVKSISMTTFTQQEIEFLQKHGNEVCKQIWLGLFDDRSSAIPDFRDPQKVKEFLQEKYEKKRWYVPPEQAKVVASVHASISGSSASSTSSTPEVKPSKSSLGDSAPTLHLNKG

Assay [2] concerns the target T3, Hrb(1-176) His6 L163P/L164P (human, UniProt P52594-1 1-176, L163P | L164P).
T3 construct: human Hrb, residues 1-176, with L163P and L164P; source: E. coli BL21(DE3)/pLysS, purified (Ni-NTA-agarose); not shown: His6, C-terminal, kept
T3 sequence (looked up): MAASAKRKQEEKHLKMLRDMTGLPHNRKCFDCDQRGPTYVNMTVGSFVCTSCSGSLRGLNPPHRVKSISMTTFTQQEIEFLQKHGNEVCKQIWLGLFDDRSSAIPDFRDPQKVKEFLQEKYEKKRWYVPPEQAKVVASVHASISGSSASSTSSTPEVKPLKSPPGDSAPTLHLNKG

For assay [3], the target named is T4, Hrb(1-176) His6 L171S/L173S (human, UniProt P52594-1 1-176, L171S | L173S).
T4 construct: human Hrb, residues 1-176, with L171S and L173S; source: E. coli BL21(DE3)/pLysS, purified (Ni-NTA-agarose); not shown: His6, C-terminal, kept
T4 sequence (looked up): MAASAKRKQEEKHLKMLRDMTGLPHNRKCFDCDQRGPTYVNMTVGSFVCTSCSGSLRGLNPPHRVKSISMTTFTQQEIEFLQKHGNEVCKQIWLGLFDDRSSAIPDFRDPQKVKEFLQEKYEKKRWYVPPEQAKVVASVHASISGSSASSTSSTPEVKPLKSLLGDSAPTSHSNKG

B1: VAMP7 longin domain L43S/Y45S, GST tag removed (domain or fragment, mouse, UniProt P70280 1-120, looked up)
chain: MAILFAVVARGTTILAKHAWCGGNFLEVTEQILAKIPSENNKSTSSHGNYLFHYICQDRIVYLCITDDDFERSRAFSFLNEVKKRFQTTYGSRAQTALPYAMNSEFSSVLAAQLKHHSEN
notes: VAMP7 longin domain with L43S and Y45S; limits as the parent GST-VAMP7 longin domain (mouse 1-120 by the antibody paragraph); Used in ITC; source: E. coli BL21(DE3)/pLysS, purified, GST removed with thrombin; not shown: GST, N-terminal, cleaved
Take B1: the Kd (in general, the free concentration of one partner at which half of the binding sites on the other are occupied at equilibrium, for simple one-to-one binding) with Hrb(1-176) His6 was over 300 µM.

B2: VAMP7 longin domain, GST tag removed (domain or fragment, mouse, UniProt P70280 1-120, looked up)
chain: MAILFAVVARGTTILAKHAWCGGNFLEVTEQILAKIPSENNKLTYSHGNYLFHYICQDRIVYLCITDDDFERSRAFSFLNEVKKRFQTTYGSRAQTALPYAMNSEFSSVLAAQLKHHSEN
notes: VAMP7 longin domain; GST-VAMP7 longin domain is described as mouse VAMP7 amino acids 1-120 in the antibody paragraph; also called VAMP7 LD; source: E. coli BL21(DE3)/pLysS, purified, GST removed with thrombin; not shown: GST, N-terminal, cleaved
On to B2, for which the Kd with Hrb(1-176) His6 was 10.5 µM; in assay [1] it was over 300 µM; in assay [2] it was over 300 µM; in assay [3], over 300 µM.
